Results on three molecules are retold here after US20250170209A1 (published 2025).

Experiment [1] deals with T1, complement component C3 (human, UniProt P01024 23-1663). The experiment can be described thus: cell-based or functional assay.
The target in experiment [2] is T1, complement component C3. The experiment in a line: cell-based or functional assay. This is another data set of the same source.

B1: (CA28-AEEAc)8-PEG40k (peptide)
peptide: ICVXQDWGAHRCTK
modifications: not fully specified; N-terminal acetyl; 1-methyl-tryptophan at position 4; disulfide Cys2-Cys12; AEEAc between Thr13 and Lys; Lys side chain coupled to one arm of an eight-arm 40 kD PEG (SUNBRIGHT HGEO-400GS); C-terminal amide
With B1, the “IC50 as a function of CA28 concentration (per peptide moiety); classical complement inhibition assay” value in experiment [1] stood at 1930 nM. Besides, in experiment [2], the “IC50 on a molar basis (calculated for 7.5 CA28 moieties per molecule); classical complement inhibition assay” value was roughly 260 nM.

B2: CA28-AEEAc-Lys-(PEG40k) (peptide)
peptide: ICVXQDWGAHRCTK
modifications: not fully specified; N-terminal acetyl; 1-methyl-tryptophan at position 4; disulfide Cys2-Cys12; AEEAc (8-amino-3,6-dioxaoctanoyl) between Thr13 and Lys; linear monofunctional 40 kD methoxy-PEG (SUNBRIGHT ME-400GS) on the Lys side chain; C-terminal amide
As to B2, the “IC50; classical complement inhibition assay (C3b deposition ELISA, human plasma)” value in experiment [1] was 1290 nM. Further, the “activity relative to CA28 on a molar basis; classical complement inhibition assay” value in experiment [2] was ~30 % of the activity of CA28.

B3: CA28-AEEAc-Lys-(PEG30k) (peptide)
peptide: ICVXQDWGAHRCTK
modifications: not fully specified; N-terminal acetyl; 1-methyl-tryptophan at position 4; disulfide Cys2-Cys12; AEEAc (8-amino-3,6-dioxaoctanoyl) between Thr13 and Lys; linear monofunctional 30 kD PEG (SUNBRIGHT ME-300GS) on the Lys side chain; C-terminal amide
With B3, the “IC50; classical complement inhibition assay (C3b deposition ELISA, human plasma)” value in experiment [1] came out at 1260 nM. In addition, in experiment [2], the “activity relative to CA28 on a molar basis; classical complement inhibition assay” value was ~30 % of the activity of CA28.
